Laboratory results published in article PMC9082959, “Mechanism of Assembly of the Non-Covalent Spectrin Tetramerization Domain from Intrinsically Disordered Partners” (Journal of molecular biology, 2013).

Tests used:
Assay in all cases: ITC; β16β17 at 25–50 μM in the cell titrated with 15–20 injections to 2–2.5 eq of α0α1; one-site binding model; PBS (50 mM sodium phosphate, 150 mM NaCl, pH 7.04), 25 °C; mutants only against the wild-type partner
Conditions in all cases: both partners purified
β16β17 C9A = target: T1, β16β17 C9A (human, UniProt P11277 1898-2083, C2012A)
T1 construct: erythrocyte β-spectrin, human, residues 1898-2083 (β16β17); mutant of m2; also called C2012A; source: E. coli C41(DE3), purified (Ni2+ agarose, thrombin cleavage, gel filtration)
T1 sequence (looked up): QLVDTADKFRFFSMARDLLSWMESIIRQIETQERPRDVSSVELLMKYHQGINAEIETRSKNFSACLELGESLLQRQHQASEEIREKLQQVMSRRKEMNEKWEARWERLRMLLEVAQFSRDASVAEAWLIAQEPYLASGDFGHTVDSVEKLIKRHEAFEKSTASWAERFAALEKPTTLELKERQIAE

β16β17 C9G = target: T2, β16β17 C9G (human, UniProt P11277 1898-2083, C2012G)
T2 construct: erythrocyte β-spectrin, human, residues 1898-2083 (β16β17); mutant of m2; also called C2012G; source: E. coli C41(DE3), purified (Ni2+ agarose, thrombin cleavage, gel filtration)
T2 sequence (looked up): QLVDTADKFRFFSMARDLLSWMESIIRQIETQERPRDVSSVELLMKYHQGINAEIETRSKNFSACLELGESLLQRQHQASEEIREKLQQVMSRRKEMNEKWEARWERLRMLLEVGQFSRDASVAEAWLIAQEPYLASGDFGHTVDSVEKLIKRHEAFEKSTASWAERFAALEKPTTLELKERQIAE

β16β17 S16G = target: T3, β16β17 S16G (human, UniProt P11277 1898-2083, S2019G)
T3 construct: erythrocyte β-spectrin, human, residues 1898-2083 (β16β17); mutant of m2; also called S2019G; source: E. coli C41(DE3), purified (Ni2+ agarose, thrombin cleavage, gel filtration)
T3 sequence (looked up): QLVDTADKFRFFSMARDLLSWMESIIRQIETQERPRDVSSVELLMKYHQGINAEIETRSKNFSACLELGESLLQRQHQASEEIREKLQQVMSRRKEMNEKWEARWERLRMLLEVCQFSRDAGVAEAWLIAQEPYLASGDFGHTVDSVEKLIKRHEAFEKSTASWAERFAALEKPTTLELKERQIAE

β16β17 A20G = target: T4, β16β17 A20G (human, UniProt P11277 1898-2083, A2023G)
T4 construct: erythrocyte β-spectrin, human, residues 1898-2083 (β16β17); mutant of m2; also called A2023G; source: E. coli C41(DE3), purified (Ni2+ agarose, thrombin cleavage, gel filtration)
T4 sequence (looked up): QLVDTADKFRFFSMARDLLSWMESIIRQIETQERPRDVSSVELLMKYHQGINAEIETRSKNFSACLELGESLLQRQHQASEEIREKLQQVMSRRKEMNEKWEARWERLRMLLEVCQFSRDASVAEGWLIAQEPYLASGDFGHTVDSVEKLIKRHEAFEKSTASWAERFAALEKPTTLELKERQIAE

β16β17 D39A = target: T5, β16β17 D39A (human, UniProt P11277 1898-2083, D2042A)
T5 construct: erythrocyte β-spectrin, human, residues 1898-2083 (β16β17); mutant of m2; also called D2042A; source: E. coli C41(DE3), purified (Ni2+ agarose, thrombin cleavage, gel filtration)
T5 sequence (looked up): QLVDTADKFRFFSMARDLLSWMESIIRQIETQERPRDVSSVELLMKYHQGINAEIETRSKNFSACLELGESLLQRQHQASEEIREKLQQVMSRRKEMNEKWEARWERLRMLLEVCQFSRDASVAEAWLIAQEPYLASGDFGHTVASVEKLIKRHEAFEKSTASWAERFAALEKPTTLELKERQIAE

β16β17 S57G = target: T6, β16β17 S57G (human, UniProt P11277 1898-2083, S2060G)
T6 construct: erythrocyte β-spectrin, human, residues 1898-2083 (β16β17); mutant of m2; also called S2060G; source: E. coli C41(DE3), purified (Ni2+ agarose, thrombin cleavage, gel filtration)
T6 sequence (looked up): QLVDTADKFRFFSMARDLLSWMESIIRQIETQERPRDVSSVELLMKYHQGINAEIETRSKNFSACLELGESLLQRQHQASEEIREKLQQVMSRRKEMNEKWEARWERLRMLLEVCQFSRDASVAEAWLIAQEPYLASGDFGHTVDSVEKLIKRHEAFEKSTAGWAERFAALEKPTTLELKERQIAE

- Ka (β16β17 C9A): 2.7e+06 M⁻¹
- Ka (β16β17 C9G): 470000 M⁻¹
- Ka (β16β17 S16G): 360000 M⁻¹
- Ka (β16β17 A20G): 530000 M⁻¹
- Ka (β16β17 D39A): 470000 M⁻¹
- Ka (β16β17 S57G): 900000 M⁻¹
B1: α0α1 (erythrocyte α-spectrin residues 2–163), wild type (domain or fragment, human, UniProt P02549 2-163, looked up)
chain: EQFPKETVVESSGPKVLETAEEIQERRQEVLTRYQSFKERVAERGQKLEDSYHLQVFKRDADDLGKWIMEKVNILTDKSYEDPTNIQGKYQKHQSLEAEVQTKSRLMSELEKTREERFTMGHSAHEETKAHIEELRHLWDLLLELTLEKGDQLLRALKFQQY
notes: synthetic gene (GenScript) in a modified pRSETA plasmid; also called α1α0; source: E. coli C41(DE3), purified (Ni2+ agarose, thrombin cleavage, gel filtration)
